T1: isoform 121 of human VEGF-A (Peprotech) (human, UniProt P15692-9 27-147)
T1 construct: also called human VEGF121; VEGF 121
T1 sequence (looked up): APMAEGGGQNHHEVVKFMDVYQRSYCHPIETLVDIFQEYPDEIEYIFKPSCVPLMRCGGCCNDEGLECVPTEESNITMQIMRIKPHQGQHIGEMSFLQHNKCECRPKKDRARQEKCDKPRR

T2: mouse VEGF (Peprotech) (mouse, UniProt Q00731-2 27-190, limits assumed)
T2 construct: also called Mouse VEGF-A
T2 sequence (looked up): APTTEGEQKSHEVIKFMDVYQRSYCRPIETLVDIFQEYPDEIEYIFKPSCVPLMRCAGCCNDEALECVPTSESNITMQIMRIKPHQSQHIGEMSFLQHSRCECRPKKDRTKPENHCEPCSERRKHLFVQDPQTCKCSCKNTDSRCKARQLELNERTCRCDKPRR

T3: human GST-VEGF (human, UniProt P15692-9 27-147)
T3 construct: also called GST-VEGF humano; not shown: GST fusion partner
T3 sequence (looked up): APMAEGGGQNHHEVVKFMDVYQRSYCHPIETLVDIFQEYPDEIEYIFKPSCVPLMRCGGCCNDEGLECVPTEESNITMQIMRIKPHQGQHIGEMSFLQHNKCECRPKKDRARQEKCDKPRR

B1: scFv L3H6 antibody fragment (scFv)
scFv: QQVQLVQSGAEVKKPGESLKISCKGSGYSFTSYWIGWVRQMPGKGLEWMGIIYPGDSDTRYSPSFQGQVTISADKSISTAYLQWSSLKASDTAMYYCARQGTHNRKIWGQGTMVTVSSAPQAKSSGSGSESKVDQAVVTQEPSLTVSPGGTVTLTCASSTGAVTSGNYPNWFQQRPGQPPRALIYSTSNKHSWTPARFSGSLLGGKAALTLSGAQPEDEAEYYCRLSYDLARPVFGGGTKLTVLG
notes: soluble, from E. coli
B2: scFv L3H5 antibody fragment (scFv)
scFv: QQVQLVQSGAEVKKPGESLKISCKGSGYSFTSYWIGWVRQMPGKGLEWMGIIYPGDSDTRYSPSFQGQVTISADKSISTAYLQWSSLKASDTAMYYCARLVHRYRAIWGQGTMVTVSSAPQAKSSGSGSESKVDQAVVTQEPSLTVSPGGTVTLTCASSTGAVTSGNYPNWFQQRPGQPPRALIYSTSNKHSWTPARFSGSLLGGKAALTLSGAQPEDEAEYYCRLSYDLARPVFGGGTKLTVLG
notes: soluble, from E. coli
B3: scFv L3H7 antibody fragment (scFv)
scFv: QQVQLVQSGAEVKKPGESLKISCKGSGYSFTSYWIGWVRQMPGKGLEWMGIIYPGDSDTRYSPSFQGQVTISADKSISTAYLQWSSLKASDTAMYYCARPYATDTRIWGQGTMVTVSSAPQAKSSGSGSESKVDQAVVTQEPSLTVSPGGTVTLTCASSTGAVTSGNYPNWFQQRPGQPPRALIYSTSNKHSWTPARFSGSLLGGKAALTLSGAQPEDEAEYYCRLSYDLARPVFGGGTKLTVLG
notes: soluble, from E. coli
B4: Fab 2H1-32 (Fab, V domains shown)
VH: QVQLVQSGAEVKKPGESLKISCKGSGYSFTSYWIGWVRQMPGKGLEWMGIIYPGDSDTRYSPSFQGQVTISADKSISTAYLQWSSLKASDTAMYYCARLVVRDTEIWGQGTMVTVSS
VL: QAVVTQEPSLTVSPGGTVTLTCASSIGAVTSGNYPNWFQQRPGQPPRALIYSTSNKHSWTPARFSGSLLGGKAALTLSGAQPEDEAEYYCLLSYSGARPVFGGGTKLTVLG
B5: Fab L3H6 (Fab, V domains shown)
VH: QVQLVQSGAEVKKPGESLKISCKGSGYSFTSYWIGWVRQMPGKGLEWMGIIYPGDSDTRYSPSFQGQVTISADKSISTAYLQWSSLKASDTAMYYCARQGTHNRKIWGQGTMVTVSS
VL: QAVVTQEPSLTVSPGGTVTLTCASSTGAVTSGNYPNWFQQRPGQPPRALIYSTSNKHSWTPARFSGSLLGGKAALTLSGAQPEDEAEYYCRLSYDLARPVFGGGTKLTVLG
notes: The entries are the mature chains without the six histidines and c-myc that the heavy chain carried at its C-terminus in the assay
B6: Fab L3H5 (Fab, V domains shown)
VH: QVQLVQSGAEVKKPGESLKISCKGSGYSFTSYWIGWVRQMPGKGLEWMGIIYPGDSDTRYSPSFQGQVTISADKSISTAYLQWSSLKASDTAMYYCARLVHRYRAIWGQGTMVTVSS
VL: QAVVTQEPSLTVSPGGTVTLTCASSTGAVTSGNYPNWFQQRPGQPPRALIYSTSNKHSWTPARFSGSLLGGKAALTLSGAQPEDEAEYYCRLSYDLARPVFGGGTKLTVLG
notes: Entries lack the six histidines and c-myc of the heavy chain
B7: Fab L3H7 (Fab, V domains shown)
VH: QVQLVQSGAEVKKPGESLKISCKGSGYSFTSYWIGWVRQMPGKGLEWMGIIYPGDSDTRYSPSFQGQVTISADKSISTAYLQWSSLKASDTAMYYCARPYATDTRIWGQGTMVTVSS
VL: QAVVTQEPSLTVSPGGTVTLTCASSTGAVTSGNYPNWFQQRPGQPPRALIYSTSNKHSWTPARFSGSLLGGKAALTLSGAQPEDEAEYYCRLSYDLARPVFGGGTKLTVLG
notes: as for B6
B8: phage displayed scFv clone 3F3 (scFv)
scFv: QQVQLVQSGAEVKKPGESLKISCKGSGYSFTSYWIGWVRQMPGKGLEWMGIIYPGDSDTRYSPSFQGQVTISADKSISTAYLQWSSLKASDTAMYYCARQGTHNRKIWGQGTMVTVSSAPQAKSSGSGSESKVDQAVVTQEPSLTVSPGGTVTLTCASSTGAVTSGNYPNWFQQRPGQPPRALIYSTSNKHSWTPARFSGSLLGGKAALTLSGAQPEDEAEYYCLLSYSGARPVFGGGTKLTVLG
modifications: Displayed on M13 phage as a protein III fusion; the phage part is not in the letters.
notes: also called VH H6
B9: phage displayed scFv clone 4D8 (scFv)
scFv: QQVQLVQSGAEVKKPGESLKISCKGSGYSFTSYWIGWVRQMPGKGLEWMGIIYPGDSDTRYSPSFQGQVTISADKSISTAYLQWSSLKASDTAMYYCARPYATDTRIWGQGTMVTVSSAPQAKSSGSGSESKVDQAVVTQEPSLTVSPGGTVTLTCASSTGAVTSGNYPNWFQQRPGQPPRALIYSTSNKHSWTPARFSGSLLGGKAALTLSGAQPEDEAEYYCLLSYSGARPVFGGGTKLTVLG
modifications: Displayed on M13 phage as a protein III fusion; the phage part is not in the letters.
notes: also called VH H7

Legend:
[1] = biological target: T4, isoform 165 of human VEGF-A (Peprotech) (human, UniProt P15692-4 27-191); experiment: SPR, BIAcore-X
T4 construct: also called human VEGF165; VEGF 165
Procedure: (§1) A CM5 sensor chip was activated via the covalent binding of human VEGF using N-Ethyl-N′-(3-dimethylaminopropyl)carbodihimide hydrochloride (EDC) and N-hydroxysuccinimide (NHS), according to the manufacturer's instructions.
(§2) The kinetic parameters and the equilibrium dissociation constants (KD) were calculated using the BIA Evaluation 3.2 software. The binding data were globally adjusted to a Langmuir 1:1 binding model.

P64K-VEGFKDR- (human) [2] = biological target: P64K-VEGFKDR- (human) (UniProt P15692); experiment: ELISA; antigen coated 1 µg/ml; scFv 10 µg/mL; 9E10-peroxidase
[3] = biological target: T1, isoform 121 of human VEGF-A (Peprotech); experiment: as above
Procedure: (§3) After several washes, 9E10 monoclonal antibody conjugated to peroxidase was added for 1 hour. After washing, the fragments bound to the solid phase were detected by the addition of substrate solution. The absorbance was read at 492 nm in a microplate reader.

[4] = biological target: T4, isoform 165 of human VEGF-A (Peprotech); experiment: as above
Target sequence in this assay (P15692 other isoform, or with tags, fused parts or gaps limits assumed): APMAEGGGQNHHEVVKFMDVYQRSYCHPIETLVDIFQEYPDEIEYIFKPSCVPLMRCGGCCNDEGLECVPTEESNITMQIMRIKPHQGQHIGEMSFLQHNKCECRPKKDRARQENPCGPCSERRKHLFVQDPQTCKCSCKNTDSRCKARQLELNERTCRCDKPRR
Procedure: as §3

mouse VEGF (Peprotech) [5] = biological target: T2, mouse VEGF (Peprotech); experiment: as above
Procedure: as §3

[6] = biological target: T4, isoform 165 of human VEGF-A (Peprotech); experiment: SPR, BIAcore-X; VEGF 165 coupled to CM5 chip; scFv injected; Langmuir 1:1
Target sequence in this assay (P15692 other isoform, or with tags, fused parts or gaps limits assumed): as above
Procedure: as §1, §2

[7] = biological target: T1, isoform 121 of human VEGF-A (Peprotech); experiment: competition ELISA: human VEGF-A isoform 121 coated, scFv varied, blocked ligand soluble KDR-Fc (VEGFR2) at 0.5 ug/mL, bound KDR-Fc detected with anti-human IgG-HRPO, absorbance 492 nm
Source text: Detection of bound soluble receptors was made using anti human IgG antibodies conjugated with HRPO.

P64K-VEGFKDR- (human) [8] = biological target: P64K-VEGFKDR- (human) (UniProt P15692); experiment: ELISA; antigen coated 1 µg/ml; Fab 10 µg/mL; 9E10-peroxidase
[9] = biological target: T1, isoform 121 of human VEGF-A (Peprotech); experiment: as above
Procedure: (§4) After blocking the plates with PBS-skimmed milk 4%, the Fab antibody fragments diluted in PBS-skimmed milk 4% were added at a 10 μg/mL concentration, and incubated for 1 h at 22° C. After several washes, 9E10 monoclonal antibody conjugated to peroxidase was added for 1 hour. After washing, the fragments bound to the solid phase were detected by the addition of substrate solution. The absorbance was read at 492 nm in a microplate reader.

[10] = biological target: T4, isoform 165 of human VEGF-A (Peprotech); experiment: as above
Target sequence in this assay (P15692 other isoform, or with tags, fused parts or gaps limits assumed): as above
Procedure: as §4

mouse VEGF (Peprotech) [11] = biological target: T2, mouse VEGF (Peprotech); experiment: as above
Procedure: as §4

human GST-VEGF = biological target: T3, human GST-VEGF; experiment: competition ELISA on coated GST-VEGF with soluble scFv 2H1
Procedure: For this, Maxisorp 96-well plates (Nunc) were coated with 10 μg/mL GST-VEGF, followed by blocking with PBS-4% skimmed milk. […] After several washes with PBS-0.1% Tween 20, VEGF-bound phages were detected using an anti-M13 antibody, conjugated to peroxidase (Amersham-Pharmacia) for 1 hour at 22° C. Following several washes, the reactions were developed with substrate solution. Absorbance was read at 492 nm in a microplate reader. […] This value is a relative indicator of the affinity of the different clones for the antigen. Higher IC50 values correspond with higher affinity.

Binder	fold affinity against scFv 2H1 [1] [fold]	absorbance at 492 nm (P64K-VEGFKDR- (human) [2])	absorbance at 492 nm [3]	absorbance at 492 nm [4]	absorbance at 492 nm (mouse VEGF (Peprotech) [5])	Kd [6] [nM]	IC50 (read off the curve) [7] [µg/mL]	absorbance at 492 nm (P64K-VEGFKDR- (human) [8])	absorbance at 492 nm [9]	absorbance at 492 nm [10]	absorbance at 492 nm (mouse VEGF (Peprotech) [11])	fold IC50 (relative affinity) against the original phage displayed scFv 2H1 (human GST-VEGF) [fold]
B1	5 to 20	2.77	2.84	2.89	1.43	26.1	~8	–	–	–	–	–
B2	–	2.61	2.78	2.8	1.39	42.1	~9	–	–	–	–	–
B3	5 to 20	2.47	2.54	2.51	1.12	87.3	~10	–	–	–	–	–
B4	–	–	–	–	–	–	–	0.704	0.589	0.601	0.091	–
B5	–	–	–	–	–	–	–	2.6	2.56	2.46	1.19	–
B6	–	–	–	–	–	–	–	2.51	2.25	2.35	1.09	–
B7	–	–	–	–	–	–	–	2.42	2.22	2.2	1.1	–
B8	–	–	–	–	–	–	–	–	–	–	–	6 to 10
B9	–	–	–	–	–	–	–	–	–	–	–	6 to 10

Reference: patent US20140086829A1 (BIOREC S A, published 2014)
